Patent US20180298083A1
Like-named read-outs stand apart in the source and are kept apart here.

What was measured:
[1] = biological target: VRC01-resistant viruses
[2] = biological target: VRC01-resistant viruses; test: cell-based or functional assay
[3] = biological target: 6631.V3.C10 (HIV-1)
[4] = biological target: VRC01-resistant viruses; remark: listed apart in the source
[5] = biological target: gp120 of X2088 (HIV-1 strain X2088.c9)
[6] = biological target: T250-4 (HIV-1)
[7] = biological target: VRC01-resistant viruses; remark: listed apart in the source
[8] = biological target: gp120 of X2088 (HIV-1 strain X2088.c9); remark: listed apart in the source
[9] = biological target: 6631.V3.C10 (HIV-1); remark: listed apart in the source
[10] = biological target: T250-4 (HIV-1); remark: listed apart in the source
[11] = biological target: 6631.V3.C10 (HIV-1); remark: listed apart in the source
[12] = biological target: VRC01-resistant viruses; remark: listed apart in the source
[13] = biological target: gp120 of X2088 (HIV-1 strain X2088.c9); remark: listed apart in the source
[14] = biological target: T250-4 (HIV-1); remark: listed apart in the source

Binder	fold decrease in neutralization (IC50 of antibody mutant/IC50 of antibody WT) [2] [fold]	neutralisation median IC50 [4] [µg/mL]	neutralisation median IC50 [7] [µg/mL]	neutralisation IC50 [8] [µg/mL]	neutralisation IC50 [9] [µg/mL]	also measured
VRC01 (antibody, V domains shown) VH: QVQLVQSGGQMKKPGESMRISCRASGYEFIDCTLNWIRLAPGKRPEWMGWLKPRGGAVNYARPLQGRVTMTRDVYSDTAFLELRSLTVDDTAVYFCTRGKNCDYNWDFEHWGRGTPVIVSS VL: EIVLTQSPGTLSLSPGETAIISCRTSQYGSLAWYQQRPGQAPRLVIYSGSTRAAGIPDRFSGSRWGPDYNLTISNLESGDFGVYYCQQYEFFGQGTKVQVDIKR	–	–	–	–	–	neutralisation IC50 [1]: > 50 µg/mL; neutralisation median IC50 [1]: > 50 µg/mL
N6 Y54GHC (antibody, V domains shown) VH: RAHLVQSGTAMKKPGASVRVSCQTSGYTFTAHILFWFRQAPGRGLEWVGWIKPQGGAVNFGGGFRDRVTLTRDVYREIAYMDIRGLKPDDTAVYYCARDRSYGDSSWALDAWGQGTTVVVSA VL: YIHVTQSPSSLSVSIGDRVTINCQTSQGVGSDLHWYQHKPGRAPKLLIHHTSSVEDGVPSRFSGSGFHTSFNLTISDLQADDIATYYCQVLQFFGRGSRLHIK	32	0.562	–	–	–	neutralisation IC50 [3]: 0.396 µg/mL; neutralisation IC50 [5]: 0.728 µg/mL
N6 VRC07CDRH3 (antibody, V domains shown) VH: RAHLVQSGTAMKKPGASVRVSCQTSGYTFTAHILFWFRQAPGRGLEWVGWIKPQYGAVNFGGGFRDRVTLTRDVYREIAYMDIRGLKPDDTAVYYCARGKYCTARDYYNWALDAWGQGTTVVVSA VL: YIHVTQSPSSLSVSIGDRVTINCQTSQGVGSDLHWYQHKPGRAPKLLIHHTSSVEDGVPSRFSGSGFHTSFNLTISDLQADDIATYYCQVLQFFGRGSRLHIK	–	48.2	–	–	–	neutralisation IC50 [3]: > 50 µg/mL; neutralisation IC50 [6]: > 50 µg/mL
N6 VRC27FRH2 (antibody, V domains shown) VH: RAHLVQSGTAMKKPGASVRVSCQTSGYTFTAHILFWFRQAPGRSFEWMGWIKPQYGAVNFGGGFRDRVTLTRDVYREIAYMDIRGLKPDDTAVYYCARDRSYGDSSWALDAWGQGTTVVVSA VL: YIHVTQSPSSLSVSIGDRVTINCQTSQGVGSDLHWYQHKPGRAPKLLIHHTSSVEDGVPSRFSGSGFHTSFNLTISDLQADDIATYYCQVLQFFGRGSRLHIK	–	–	0.195	0.143	–	–
N6 N17FRH3 (antibody, V domains shown) VH: RAHLVQSGTAMKKPGASVRVSCQTSGYTFTAHILFWFRQAPGRGLEWVGWIKPQYGAVNFGGGFRDRVTLTRDIYRDTAYMDISGLRFDDTAVYYCARDRSYGDSSWALDAWGQGTTVVVSA VL: YIHVTQSPSSLSVSIGDRVTINCQTSQGVGSDLHWYQHKPGRAPKLLIHHTSSVEDGVPSRFSGSGFHTSFNLTISDLQADDIATYYCQVLQFFGRGSRLHIK	–	–	0.18	0.106	–	neutralisation fold change (IC50 mutant/IC50 WT) [7]: 10 fold; fold decrease in potency (IC50 of antibody mutant/IC50 of antibody WT) [2]: 7 fold
N6 GGG60-62ARPHC (antibody, V domains shown) VH: RAHLVQSGTAMKKPGASVRVSCQTSGYTFTAHILFWFRQAPGRGLEWVGWIKPQYGAVNFARPFRDRVTLTRDVYREIAYMDIRGLKPDDTAVYYCARDRSYGDSSWALDAWGQGTTVVVSA VL: YIHVTQSPSSLSVSIGDRVTINCQTSQGVGSDLHWYQHKPGRAPKLLIHHTSSVEDGVPSRFSGSGFHTSFNLTISDLQADDIATYYCQVLQFFGRGSRLHIK	14	0.248	–	–	–	neutralisation IC50 [5]: 0.15 µg/mL
N6 VRC27FRH1 (antibody, V domains shown) VH: SQRLVQSGPQVRKPGSSVRISCETSGYTFNAHILFWFRQAPGRGLEWVGWIKPQYGAVNFGGGFRDRVTLTRDVYREIAYMDIRGLKPDDTAVYYCARDRSYGDSSWALDAWGQGTTVVVSA VL: YIHVTQSPSSLSVSIGDRVTINCQTSQGVGSDLHWYQHKPGRAPKLLIHHTSSVEDGVPSRFSGSGFHTSFNLTISDLQADDIATYYCQVLQFFGRGSRLHIK	–	–	0.373	0.184	0.561	–
N6 VRC27CDRH2 (antibody, V domains shown) VH: RAHLVQSGTAMKKPGASVRVSCQTSGYTFTAHILFWFRQAPGRGLEWVGWIKPKFGAVNYAHSFQGRVTLTRDVYREIAYMDIRGLKPDDTAVYYCARDRSYGDSSWALDAWGQGTTVVVSA VL: YIHVTQSPSSLSVSIGDRVTINCQTSQGVGSDLHWYQHKPGRAPKLLIHHTSSVEDGVPSRFSGSGFHTSFNLTISDLQADDIATYYCQVLQFFGRGSRLHIK	78	–	1.37	–	1.17	neutralisation IC50 [10]: 1.57 µg/mL
N6 VRC27FRH3 (antibody, V domains shown) VH: RAHLVQSGTAMKKPGASVRVSCQTSGYTFTAHILFWFRQAPGRGLEWVGWIKPQYGAVNFGGGFRDRITLTRDIYRETAFLDLTGLRFDDTAVYYCARDRSYGDSSWALDAWGQGTTVVVSA VL: YIHVTQSPSSLSVSIGDRVTINCQTSQGVGSDLHWYQHKPGRAPKLLIHHTSSVEDGVPSRFSGSGFHTSFNLTISDLQADDIATYYCQVLQFFGRGSRLHIK	–	–	0.525	0.509	0.54	–
N6 VRC27CDRH3 (antibody, V domains shown) VH: RAHLVQSGTAMKKPGASVRVSCQTSGYTFTAHILFWFRQAPGRGLEWVGWIKPQYGAVNFGGGFRDRVTLTRDVYREIAYMDIRGLKPDDTAVYYCARDRLYDGSSWRLDPWGQGTTVVVSA VL: YIHVTQSPSSLSVSIGDRVTINCQTSQGVGSDLHWYQHKPGRAPKLLIHHTSSVEDGVPSRFSGSGFHTSFNLTISDLQADDIATYYCQVLQFFGRGSRLHIK	10	–	0.167	–	0.268	–
N6 N17FRH1 (antibody, V domains shown) VH: RAHLVQSGTAVKRPGASVRVSCETSGYTFTAHILFWFRQAPGRGLEWVGWIKPQYGAVNFGGGFRDRVTLTRDVYREIAYMDIRGLKPDDTAVYYCARDRSYGDSSWALDAWGQGTTVVVSA VL: YIHVTQSPSSLSVSIGDRVTINCQTSQGVGSDLHWYQHKPGRAPKLLIHHTSSVEDGVPSRFSGSGFHTSFNLTISDLQADDIATYYCQVLQFFGRGSRLHIK	–	–	0.111	–	–	neutralisation fold change (IC50 mutant/IC50 WT) [7]: 6 fold; fold decrease in potency (IC50 of antibody mutant/IC50 of antibody WT) [2]: 5 fold
N6 VRC08CDRH3 (antibody, V domains shown) VH: RAHLVQSGTAMKKPGASVRVSCQTSGYTFTAHILFWFRQAPGRGLEWVGWIKPQYGAVNFGGGFRDRVTLTRDVYREIAYMDIRGLKPDDTAVYYCARGRSCCGGRRHCNGADCFNWALDAWGQGTTVVVSA VL: YIHVTQSPSSLSVSIGDRVTINCQTSQGVGSDLHWYQHKPGRAPKLLIHHTSSVEDGVPSRFSGSGFHTSFNLTISDLQADDIATYYCQVLQFFGRGSRLHIK	–	> 50	–	–	–	neutralisation IC50 [5]: 1.4 µg/mL; neutralisation IC50 [6]: > 50 µg/mL
VRC27 heavy chain with N6 light chain (antibody, V domains shown) VH: QRLVQSGPQVRKPGSSVRISCETSGYTFNAYILHWFRQAPGRSFEWMGWIKPKFGAVNYAHSFQGRITLTRDIYRETAFLDLTGLRFDDTAVYYCARDRLYDGSSWRLDPWGQGTRVVVSS VL: YIHVTQSPSSLSVSIGDRVTINCQTSQGVGSDLHWYQHKPGRAPKLLIHHTSSVEDGVPSRFSGSGFHTSFNLTISDLQADDIATYYCQVLQFFGRGSRLHIK	–	–	–	–	–	neutralisation IC50 [11]: > 50 µg/mL; neutralisation fold change (IC50 original/IC50 combination) [12]: 1 fold; neutralisation median IC50 [12]: > 50 µg/mL; neutralisation IC50 [13]: > 50 µg/mL; neutralisation IC50 [14]: 23.1 µg/mL
